Results reported in paper PMC10774444, “BPG4 regulates chloroplast development and homeostasis by suppressing GLK transcription factors and involving light and brassinosteroid signaling”.

Biological target: T1, GST-GLK1 (Arabidopsis thaliana, UniProt Q9SIV3 1-420)
T1 sequence: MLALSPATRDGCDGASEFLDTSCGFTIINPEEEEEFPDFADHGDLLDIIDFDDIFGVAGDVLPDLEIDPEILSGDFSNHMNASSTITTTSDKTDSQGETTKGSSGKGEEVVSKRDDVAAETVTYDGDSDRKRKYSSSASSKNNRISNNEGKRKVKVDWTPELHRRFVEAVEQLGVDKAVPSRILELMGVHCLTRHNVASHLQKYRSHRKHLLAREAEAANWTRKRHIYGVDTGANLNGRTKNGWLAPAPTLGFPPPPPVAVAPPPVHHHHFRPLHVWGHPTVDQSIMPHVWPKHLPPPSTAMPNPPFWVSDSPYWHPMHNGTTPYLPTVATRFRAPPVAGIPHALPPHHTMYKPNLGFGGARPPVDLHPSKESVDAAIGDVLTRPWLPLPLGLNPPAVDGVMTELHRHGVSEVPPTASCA
Assay: EMSA; without BPG4; GLK1 EMSA: 10 mM Tris-HCl pH 8.0, 50 mM KCl, 10 mM EDTA, 2.5% glycerol, 1 mM DTT, 0.05 ug/ul poly(dI-dC), 5 pmol probe; proteins preincubated on ice 5 min then
Conditions: protein: recombinant; tags: N-term GST (pGEX-6P-3); label: FAM; blunt

B1: CAO-probe (dsDNA)
DNA 1: TTTAGATCCCATGATTCTCAACACGACTGA
DNA 2: TCAGTCGTGTTGAGAATCATGGGATCTAAA
- binding result: binds
